Results from patent publication US20260242419A1, “A CYCLIC PEPTIDE FOR TRAPPING INTERLEUKIN-1 BETA” (Merck Sharp & Dohme LLC, priority 2023, published 2026).
Starred links: 1 amine or outer side, 2 acyl side, 3 side chain; linkers in the order of their positions; H or OH if unused. Non-standard residues stand in square brackets, D forms with d. orbOHorPhe4COOH = 4-[(1R,2S)-2-amino-2-carboxy-1-hydroxy-ethyl]benzoic acid, O=C([C@@H](N[*:1])[C@H](O)c1ccc(C(=O)[*:3])cc1)[*:2]; Phe4PyrimOMe = (S)-2-amino-3-(4-(2-methoxypyrimidin-5-yl)phenyl)propanoic acid, COc1ncc(-c2ccc(C[C@H](N[*:1])C(=O)[*:2])cc2)cn1; Phe4ImMe = (S)-2-amino-3-(4-(1-methyl-1H-imidazol-4-yl)phenyl)propanoic acid, Cn1cnc(-c2ccc(C[C@H](N[*:1])C(=O)[*:2])cc2)c1; Phe42ImMe = (S)-2-amino-3-(4-(1-methyl-1H-imidazol-2-yl)phenyl)propanoic acid, Cn1ccnc1-c1ccc(C[C@H](N[*:1])C(=O)[*:2])cc1; dProc3CH24Pal = (2R,3S)-3-(4-pyridylmethyl)pyrrolidine-2-carboxylic acid, O=C([C@H]1[C@@H](Cc2ccncc2)CCN1[*:1])[*:2]; AlaPyrim4CONH2 = (2S)-2-amino-3-(2-carbamoylpyrimidin-5-yl)propanoic acid, NC(=O)c1ncc(C[C@H](N[*:1])C(=O)[*:2])cn1; SbOH4Pal = (2S,3S)-2-amino-3-hydroxy-3-(4-pyridyl)propanoic acid, O=C([C@@H](N[*:1])[C@@H](O[*:3])c1ccncc1)[*:2]; sbOH4Pal = (2S,3S)-2-amino-3-hydroxy-3-(4-pyridyl)propanoic acid, O=C([C@@H](N[*:1])[C@@H](O[*:3])c1ccncc1)[*:2]; Phe4Pyrim = (S)-2-amino-3-(4-(pyrimidin-5-yl)phenyl)propanoic acid, O=C([C@H](Cc1ccc(-c2cncnc2)cc1)N[*:1])[*:2]; RbOH4Pal = (2S,3R)-2-amino-3-hydroxy-3-(4-pyridyl)propanoic acid, O=C([C@@H](N[*:1])[C@H](O[*:3])c1ccncc1)[*:2]; AlaPiperazAc = (S)-3-(4-acetylpiperazin-1-yl)-2-aminopropanoic acid, CC(=O)N1CCN(C[C@H](N[*:1])C(=O)[*:2])CC1; 4PyrimAla = (2S)-2-amino-3-pyrimidin-4-yl-propanoic acid, O=C([C@H](Cc1ccncn1)N[*:1])[*:2]; daMeSMe = (2R)-2-amino-3-methoxy-2-methyl-propanoic acid, COC[C@@](C)(N[*:1])C(=O)[*:2]; Ala(2-carboxypyrimidin-5-yl) = N[C@@H](Cc1cnc(C(=O)O)nc1)C(=O)O; dPro(4R-(4-pyridylmethyl)) = O=C(O)[C@H]1C[C@@H](Cc2ccncc2)CN1; Trp(βS-Me,4-F) = C[C@@H](c1c[nH]c2cccc(F)c12)[C@H](N)C(=O)O; Bip(4'-COOH) = N[C@@H](Cc1ccc(-c2ccc(C(=O)O)cc2)cc1)C(=O)O; Ala(1-bicyclo(1.1.1)pentyl) = N[C@@H](CC12CC(C1)C2)C(=O)O; Phe(4-(4-pyridyl)) = N[C@@H](Cc1ccc(-c2ccncc2)cc1)C(=O)O; dPro(4R-Bzl(4-F)) = O=C(O)[C@H]1C[C@@H](Cc2ccc(F)cc2)CN1; dPro(3S-(4-F-Bn)) = O=C(O)[C@@H]1NCC[C@@H]1Cc1ccc(F)cc1; 1Nal(3S-Me) = C[C@@H](c1cccc2ccccc12)[C@H](N)C(=O)O; Ala(morpholin-4-yl) = N[C@@H](CN1CCOCC1)C(=O)O; Ala(piperazin-1-yl) = N[C@@H](CN1CCNCC1)C(=O)O; Ala(pyrimidin-5-yl) = N[C@@H](Cc1cncnc1)C(=O)O; Phe(4-COOH) = N[C@@H](Cc1ccc(C(=O)O)cc1)C(=O)O; Bip = N[C@@H](Cc1ccc(-c2ccccc2)cc1)C(=O)O; Pro(cis-4-F) = O=C(O)[C@@H]1C[C@H](F)CN1; Met(O2) = CS(=O)(=O)CC[C@H](N)C(=O)O; Dap(CONH2) = NC(=O)NC[C@H](N)C(=O)O; cisHyp = O=C(O)[C@@H]1C[C@H](O)CN1; d(αMeD) = C[C@@](N)(CC(=O)O)C(=O)O; 4Pal = N[C@@H](Cc1ccncc1)C(=O)O; aThr = C[C@H](O)[C@H](N)C(=O)O; NMeDab = CN[C@@H](CCN)C(=O)O; Dab = NCC[C@H](N)C(=O)O; Aib = CC(C)(N)C(=O)O

Target: Recombinant human IL-1β (BioLegend 579404) (human, UniProt P01584 117-269)
Test: cell-based or functional assay

| MRC5 IC50 [nM] | Binder |
| --- | --- |
| 0.019 | cyclo([Bip][4Pal][Phe(4-COOH)]G[Pro(cis-4-F)][1Nal(3S-Me)][Aib]SW[d(αMeD)][aThr]Q[Dab]G[dPro(4R-(4-pyridylmethyl))]) (ring closure inferred) [SEQ ID NO 288] |
| 0.017 | cyclo([Bip(4'-COOH)][4Pal][Phe(4-COOH)]G[Pro(cis-4-F)][Trp(βS-Me,4-F)][Aib]SW[daMeSMe][aThr]Q[Dab]G[dPro(4R-(4-pyridylmethyl))]) (ring closure inferred) [SEQ ID NO 261] |
| 0.014 | cyclo([Bip(4'-COOH)][4Pal][Phe(4-COOH)]G[Pro(cis-4-F)][Trp(βS-Me,4-F)][Aib]SW[Aib][Ala(2-carboxypyrimidin-5-yl)]Q[Dab]G[dPro(4R-(4-pyridylmethyl))]) (ring closure inferred) [SEQ ID NO 268] |
| 0.018 | cyclo([Bip(4'-COOH)][4Pal][Phe(4-COOH)]G[Pro(cis-4-F)][Trp(βS-Me,4-F)][Aib]SW[Aib][SbOH4Pal]Q[Dab]G[dPro(4R-Bzl(4-F))]) (ring closure inferred) [SEQ ID NO 272] |
| 0.023 | cyclo([Bip(4'-COOH)][4Pal][Phe(4-COOH)]G[Pro(cis-4-F)][Trp(βS-Me,4-F)][Aib]SW[Aib][Ala(pyrimidin-5-yl)]Q[Dap(CONH2)]G[dPro(4R-(4-pyridylmethyl))]) (ring closure inferred) [SEQ ID NO 270] |
| 0.016 | cyclo([Phe(4-(4-pyridyl))][4Pal][Phe(4-COOH)]G[Pro(cis-4-F)][Trp(βS-Me,4-F)][Aib]SW[d(αMeD)][Ala(pyrimidin-5-yl)]Q[Dab]G[dPro(3S-(4-F-Bn))]) (ring closure inferred) [SEQ ID NO 283] |
| 0.023 | cyclo([Phe4F][4Pal][Phe(4-COOH)]G[Pro(cis-4-F)][Trp(βS-Me,4-F)][Aib]SW[d(αMeD)][Ala(pyrimidin-5-yl)]Q[Dab]G[dPro(3S-(4-F-Bn))]) (ring closure inferred) [SEQ ID NO 277] |
| 0.012 | cyclo([Phe4PyrimOMe][4Pal][Phe(4-COOH)]G[Pro(cis-4-F)][Trp(βS-Me,4-F)][Aib]SW[d(αMeD)][Ala(pyrimidin-5-yl)]Q[Dab]G[dPro(3S-(4-F-Bn))]) (ring closure inferred) [SEQ ID NO 281] |
| 0.014 | cyclo([Bip][4Pal][Phe(4-COOH)]G[Pro(cis-4-F)][Trp(βS-Me,4-F)][Aib]SW[Aib][Ala(2-carboxypyrimidin-5-yl)]Q[Dab]G[dPro(4R-(4-pyridylmethyl))]) (ring closure inferred) [SEQ ID NO 269] |
| 0.023 | cyclo([Bip(4'-COOH)][4Pal][Phe(4-COOH)]G[Pro(cis-4-F)][Trp(βS-Me,4-F)][Aib]EW[Aib][AlaPiperazAc]QSG[dPro(4R-Bzl(4-F))]) (ring closure inferred) [SEQ ID NO 271] |
| 0.02 | cyclo([Bip(4'-COOH)][4Pal][Phe(4-COOH)]G[Pro(cis-4-F)][Trp(βS-Me,4-F)][Aib]SW[Aib][Ala(pyrimidin-5-yl)]Q[NMeDab]G[dPro(4R-(4-pyridylmethyl))]) (ring closure inferred) [SEQ ID NO 262] |
| 0.01 | cyclo([Bip(4'-COOH)][4Pal][Phe(4-COOH)]G[Pro(cis-4-F)][Trp(βS-Me,4-F)][Aib]SW[d(αMeD)][Ala(morpholin-4-yl)]Q[Dab]G[dPro(3S-(4-F-Bn))]) (ring closure inferred) [SEQ ID NO 286] |
| 0.019 | cyclo([Bip(4'-COOH)][4Pal][Phe(4-COOH)]G[Pro(cis-4-F)][Trp(βS-Me,4-F)][Aib]SW[Aib][Met(O2)]Q[Dab]G[dPro(4R-(4-pyridylmethyl))]) (ring closure inferred) [SEQ ID NO 266] |
| 0.022 | cyclo([Bip][4Pal][Phe(4-COOH)]G[Pro(cis-4-F)][Trp(βS-Me,4-F)][Aib]SW[Aib][dD]Q[Dab]G[dPro(4R-(4-pyridylmethyl))]) (ring closure inferred) [SEQ ID NO 265] |
| 0.013 | cyclo([Bip(4'-COOH)][4Pal][Phe(4-COOH)]G[Pro(cis-4-F)][Trp(βS-Me,4-F)][Aib]SW[Aib][RbOH4Pal]Q[Dab]G[dPro(4R-Bzl(4-F))]) (ring closure inferred) [SEQ ID NO 273] |
| 0.015 | cyclo([Bip(4'-COOH)][Ala(1-bicyclo(1.1.1)pentyl)][Phe(4-COOH)]G[Pro(cis-4-F)][Trp(βS-Me,4-F)][Aib]SW[d(αMeD)][4PyrimAla]Q[Dab]G[dProc3CH24Pal]) (ring closure inferred) [SEQ ID NO 284] |
| 0.011 | cyclo([Bip(4'-COOH)][4Pal][Phe(4-COOH)]G[Pro(cis-4-F)][Trp(βS-Me,4-F)][Aib]SW[d(αMeD)][Ala(piperazin-1-yl)]Q[Dab]G[dPro(3S-(4-F-Bn))]) (ring closure inferred) [SEQ ID NO 287] |
| 0.014 | cyclo([Phe4Pyrim][4Pal][Phe(4-COOH)]G[Pro(cis-4-F)][Trp(βS-Me,4-F)][Aib]SW[d(αMeD)][Ala(pyrimidin-5-yl)]Q[Dab]G[dPro(3S-(4-F-Bn))]) (ring closure inferred) [SEQ ID NO 282] |
| 0.017 | cyclo([Bip][4Pal][Phe(4-COOH)]G[cisHyp][Trp(βS-Me,4-F)][Aib]SW[d(αMeD)][Ala(pyrimidin-5-yl)]Q[Dab]G[dPro(4R-(4-pyridylmethyl))]) (ring closure inferred) [SEQ ID NO 264] |
| 0.026 | cyclo([Bip(4'-COOH)][RbOH4Pal][Phe(4-COOH)]G[Pro(cis-4-F)][Trp(βS-Me,4-F)][Aib]SW[Aib][Ala(pyrimidin-5-yl)]Q[Dab]G[dPro(4R-Bzl(4-F))]) (ring closure inferred) [SEQ ID NO 274] |
| 0.021 | cyclo(Y[4Pal][Phe(4-COOH)]G[Pro(cis-4-F)][Trp(βS-Me,4-F)][Aib]SW[d(αMeD)][Ala(pyrimidin-5-yl)]Q[Dab]G[dPro(3S-(4-F-Bn))]) (ring closure inferred) [SEQ ID NO 278] |
| 0.018 | cyclo([Bip(4'-COOH)][4Pal][orbOHorPhe4COOH]G[Pro(cis-4-F)][Trp(βS-Me,4-F)][Aib]SW[Aib][Ala(pyrimidin-5-yl)]Q[Dab]G[dPro(4R-Bzl(4-F))]) (ring closure inferred) [SEQ ID NO 275] |
| 0.016 | cyclo([Phe42ImMe][4Pal][Phe(4-COOH)]G[Pro(cis-4-F)][Trp(βS-Me,4-F)][Aib]SW[d(αMeD)][Ala(pyrimidin-5-yl)]Q[Dab]G[dPro(3S-(4-F-Bn))]) (ring closure inferred) [SEQ ID NO 280] |
| 0.013 | cyclo([Bip(4'-COOH)][4Pal][Phe(4-COOH)]G[Pro(cis-4-F)][Trp(βS-Me,4-F)][Aib]SW[daMeSMe][Ala(pyrimidin-5-yl)]Q[Dab]G[dPro(4R-(4-pyridylmethyl))]) (ring closure inferred) [SEQ ID NO 260] |
| 0.014 | cyclo([Bip(4'-COOH)][4Pal][Phe(4-COOH)]G[Pro(cis-4-F)][Trp(βS-Me,4-F)][Aib]SW[Aib][AlaPyrim4CONH2]Q[Dab]G[dPro(4R-(4-pyridylmethyl))]) (ring closure inferred) [SEQ ID NO 267] |
| 0.013 | cyclo([Bip(4'-COOH)][Ala(1-bicyclo(1.1.1)pentyl)][Phe(4-COOH)]G[Pro(cis-4-F)][Trp(βS-Me,4-F)][Aib]SW[d(αMeD)][4PyrimAla]Q[Dab]G[dPro(4R-(4-pyridylmethyl))]) (ring closure inferred) [SEQ ID NO 285] |
| 0.013 | cyclo([Phe4ImMe][4Pal][Phe(4-COOH)]G[Pro(cis-4-F)][Trp(βS-Me,4-F)][Aib]SW[d(αMeD)][Ala(pyrimidin-5-yl)]Q[Dab]G[dPro(3S-(4-F-Bn))]) (ring closure inferred) [SEQ ID NO 279] |
| 0.017 | cyclo([Bip(4'-COOH)][4Pal][Phe(4-COOH)]G[Pro(cis-4-F)][Trp(βS-Me,4-F)][Aib]SW[d(αMeD)][sbOH4Pal]Q[Dab]G[dPro(3S-(4-F-Bn))]) (ring closure inferred) [SEQ ID NO 263] |
| 0.017 | cyclo([Bip(4'-COOH)][4Pal][Phe(4-COOH)]G[Pro(cis-4-F)][Trp(βS-Me,4-F)][Aib]EW[Aib]HQ[Dab]G[dPro(4R-Bzl(4-F))]) (ring closure inferred) [SEQ ID NO 276] |
